Source: doi:10.1101/2021.08.05.455261
Where two headings read alike, the source gives them in different places.

Experiments:
Assay in all cases: SEC
[1] = molecular target: C-terminal domain homolog (CTDH) from Anabaena variabilis (Anabaena variabilis)
[2] = molecular target: C-terminal domain homolog (CTDH) from Anabaena variabilis (Anabaena variabilis); remark: listed apart in the source
[3] = molecular target: C-terminal domain homolog (CTDH) from Anabaena variabilis (Anabaena variabilis); remark: listed apart in the source
[4] = molecular target: C-terminal domain homolog (CTDH) from Anabaena variabilis (Anabaena variabilis); remark: listed apart in the source

Measured: stoichiometry N

C-terminal domain homolog (CTDH) from Anabaena variabilis (natural protein)
2: all assays above
